Source: PMC11474037

Target: insulin receptor (purified IR, consisting of α and β subunits) (human (cloned from HEK293T cells)) (UniProt P06213)
Test: SPR

HtB-mNG (insulin B chain fused to mNeonGreen) (domain or fragment)
Kd: 3.33 µM
